In the RNAGym collection of RNA variant scans (doi:10.1093/molbev/msab373) one finds reverse-splicing fitness data, which are given here for 15 variants.

B1: Azoarcus group I ribozyme (parent)
chain: GUGCCUUGCGCCGGGAAACCACGCAAGGGAUGGUGUCAAAUUCGGCGAAACCUAAGCGCCCGCCCGGGCGUAUGGCAACGCCGAGCCAAGCUUCGGCGCCUGCGCCGAUGAAGGUGUAGAGACUAGACGGCACCCACCUAAGGCAAACGCUAUGGUGAAGGCAUAGUCCAGGGAGUGGCGAAAGUCACACAAACCGG

The data set covers variants of B1. The data set is described as follows: reverse-splicing fitness (ratio to wild type); higher = more active; in vitro selection; Mg2+ level not given. Summed up: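 An in vitro group I ribozyme library with randomized positions was T7-transcribed and gel-purified. In triplicate, 10 pmol RNA in EPPS pH 7.5 was reacted with 50 pmoles of a 30-nt RNA substrate for 1 h at 37 °C across several added MgCl2 levels (1–48 mM), then stopped with EDTA. Products were reverse transcribed from a substrate-complementary primer, PCR-amplified and sequenced (HiSeq 4000). Fitness is a variant's read proportion after selection over that before, normalised to wild type.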
As to GUGCCUUGCGCCGGGAAACCACGCAAGGGAUGGUGUCAAAUUCGGCGAAACCUAAGCGCCCGCCCGGGCGUAUGGCAACGCGGAGCCAAGCUUCGGCGCCUGCGCCGAUGCAGGUGUAGAGACUAGACGGCACCCACCUAAGGCGAACGUUAUGGUGAAGGCAUAGUCAAGGGAGUGGCGAAAGUCACACAAACCGG [C82G A111C A145G C150U C169A], the reverse-splicing fitness was 0.0097.
Turning to GUGCCUUGCGCCGGGAAACCACGCAAGGGAUGGUGUCAAAUUCGGCGAAACCUAAGCGCCCGCCCGGGCGUAUGGCAACGCGGAGCCAAGCUUCGGCGCCUGCGCCGAUGCAGGUGUAGAGACUAGACGGCACCCACCUAAGGCGAACGUUAUGGUGAAGGCAUAGUCUAGGGAGUGGCGAAAGUCACACAAACCGG [C82G A111C A145G C150U C169U], the reverse-splicing fitness was 0.0115.
As to GUGCCUUGCGCCGGGAAACCACGCAAGGGAUGGUGUCAAAUUCGGCGAAACCUAAGCGCCCGCCCGGGCGUAUGGCAACGCGGAGCCAAGCUUCGGCGCCUGCGCCGAUGCAGGUGUAGAGACUAGACGGCACCCACCUAAGGCGAACGUUAUGGUGAAGGCAUAGUCCAGGGAGGGGCGAAAGUCACACAAACCGG [C82G A111C A145G C150U U176G], the reverse-splicing fitness was found to be 0.0306.
To GUGCCUUGCGCCGGGAAACCACGCAAGGGAUGGUGUCAAAUUCGGCGAAACCUAAGCGCCCGCCCGGGCGUAUGGCAACGCGGAGCCAAGCUUCGGCGCCUGCGCCGAUGCAGGUGUAGAGACUAGACGGCACCCACCUAAGGCGAACGUUAUGGUGAAGGCAUAGUCCAGGGAGAGGCGAAAGUCACACAAACCGG [C82G A111C A145G C150U U176A] belongs 0.0896; to GUGCCUUGCGCCGGGAAACCACGCAAGGGAUGGUGUCAAAUUCGGCGAAACCUAAGCGCCCGCCCGGGCGUAUGGCAACGCGGAGCCAAGCUUCGGCGCCUGCGCCGAUGCAGGUGUAGAGACUAGACGGCACCCACCUAAGGCGAACGUUAUGGUGAAGGCAUAGUCCAGGGAGCGGCGAAAGUCACACAAACCGG [C82G A111C A145G C150U U176C], 0.11; to GUGCCUUGCGCCGGGAAACCACGCAAGGGAUGGUGUCAAAUUCGGCGAAACCUAAGCGCCCGCCCGGGCGUAUGGCAACGCGGAGCCAAGCUUCGGCGCCUGCGCCGAUGCAGGUGUAGAGACUAGACGGCACCCACCUAAGGCGAACGGUAUGGUGAAGGCAUAGUCCAGGGAGAGGCGAAAGUCACACAAACCGG [C82G A111C A145G C150G U176A], 0.0138.
Next, GUGCCUUGCGCCGGGAAACCACGCAAGGGAUGGUGUCAAAUUCGGCGAAACCUAAGCGCCCGCCCGGGCGUAUGGCAACGCGGAGCCAAGCUUCGGCGCCUGCGCCGAUGCAGGUGUAGAGACUAGACGGCACCCACCUAAGGCGAACGGUAUGGUGAAGGCAUAGUCCAGGGAGGGGCGAAAGUCACACAAACCGG [C82G A111C A145G C150G U176G]: 0.00754.
In the case of GUGCCUUGCGCCGGGAAACCACGCAAGGGAUGGUGUCAAAUUCGGCGAAACCUAAGCGCCCGCCCGGGCGUAUGGCAACGCGGAGCCAAGCUUCGGCGCCUGCGCCGAUGCAGGUGUAGAGACUAGACGGCACCCACCUAAGGCGAACGGUAUGGUGAAGGCAUAGUCCAGGGAGCGGCGAAAGUCACACAAACCGG [C82G A111C A145G C150G U176C], the reverse-splicing fitness came out at 0.0214.
To GUGCCUUGCGCCGGGAAACCACGCAAGGGAUGGUGUCAAAUUCGGCGAAACCUAAGCGCCCGCCCGGGCGUAUGGCAACGCGGAGCCAAGCUUCGGCGCCUGCGCCGAUGCAGGUGUAGAGACUAGACGGCACCCACCUAAGGCGAACGGUAUGGUGAAGGCAUAGUCUAGGGAGGGGCGAAAGUCACACAAACCGG [C82G A111C A145G C150G C169U U176G] belongs 0.00728.
To GUGCCUUGCGCCGGGAAACCACGCAAGGGAUGGUGUCAAAUUCGGCGAAACCUAAGCGCCCGCCCGGGCGUAUGGCAACGCGGAGCCAAGCUUCGGCGCCUGCGCCGAUGCAGGUGUAGAGACUAGACGGCACCCACCUAAGGCGAACGUUAUGGUGAAGGCAUAGUCAAGGGAGGGGCGAAAGUCACACAAACCGG [C82G A111C A145G C150U C169A U176G] belongs 0.00789; to GUGCCUUGCGCCGGGAAACCACGCAAGGGAUGGUGUCAAAUUCGGCGAAACCUAAGCGCCCGCCCGGGCGUAUGGCAACGCGGAGCCAAGCUUCGGCGCCUGCGCCGAUGCAGGUGUAGAGACUAGACGGCACCCACCUAAGGCGAACGUUAUGGUGAAGGCAUAGUCAAGGGAGCGGCGAAAGUCACACAAACCGG [C82G A111C A145G C150U C169A U176C], 0.0146; to GUGCCUUGCGCCGGGAAACCACGCAAGGGAUGGUGUCAAAUUCGGCGAAACCUAAGCGCCCGCCCGGGCGUAUGGCAACGCGGAGCCAAGCUUCGGCGCCUGCGCCGAUGCAGGUGUAGAGACUAGACGGCACCCACCUAAGGCGAACGUUAUGGUGAAGGCAUAGUCAAGGGAGAGGCGAAAGUCACACAAACCGG [C82G A111C A145G C150U C169A U176A], 0.0153.
As to GUGCCUUGCGCCGGGAAACCACGCAAGGGAUGGUGUCAAAUUCGGCGAAACCUAAGCGCCCGCCCGGGCGUAUGGCAACGCGGAGCCAAGCUUCGGCGCCUGCGCCGAUGCAGGUGUAGAGACUAGACGGCACCCACCUAAGGCGAACGCUAUGGUGAAGGCAUAGUCAAGGGAGGGGCGAAAGUCACACAAACCGG [C82G A111C A145G C169A U176G], the reverse-splicing fitness came out at 0.00852.
Next, GUGCCUUGCGCCGGGAAACCACGCAAGGGAUGGUGUCAAAUUCGGCGAAACCUAAGCGCCCGCCCGGGCGUAUGGCAACGCGGAGCCAAGCUUCGGCGCCUGCGCCGAUGCAGGUGUAGAGACUAGACGGCACCCACCUAAGGCGAACGCUAUGGUGAAGGCAUAGUCAAGGGAGCGGCGAAAGUCACACAAACCGG [C82G A111C A145G C169A U176C]: 0.0311.
To GUGCCUUGCGCCGGGAAACCACGCAAGGGAUGGUGUCAAAUUCGGCGAAACCUAAGCGCCCGCCCGGGCGUAUGGCAACGCGGAGCCAAGCUUCGGCGCCUGCGCCGAUGCAGGUGUAGAGACUAGACGGCACCCACCUAAGGCGAACGCUAUGGUGAAGGCAUAGUCAAGGGAGAGGCGAAAGUCACACAAACCGG [C82G A111C A145G C169A U176A] belongs 0.0222.
